According to article PMC3025356, “Mechanism of the Ca^2+-Dependent Interaction between S100A4 and Tail Fragments of Nonmuscle Myosin Heavy Chain IIA” (Journal of Molecular Biology, 2011):

Legend:
[1] = tested on: M200 filaments; assay: Stopped-flow turbidity, dissociation of M200 filaments on NaCl jump or dilution; type: biochemical, human
Procedure: Fig. 9 Dissociation of M200 filaments by S100A4. (a) Initially, M200 was added (i) from a concentrated stock in 0.5 M NaCl to give a final concentration of 5 μM M200 (with respect to the polypeptide chain) in 100 mM NaCl, 10 mM Hepes, and 0.1 mM Ca^2+ at pH 7.5 and 20 °C. A biphasic rise in turbidity was recorded for 200 s (continuous line). Then 10 μM S100A4 (with respect to monomer concentration) was added (ii), followed by 0.2 mM EGTA (iii) and 1 mM Ca^2+ (iv). […] (b) M200 was diluted (i) into 100 mM NaCl to form filaments as in (a), then 5 μM S100A4 was added (ii), causing a 54% drop in turbidity. A further 5 μM S100A4 (iii) caused turbidity to fall to almost zero. (c) Stopped-flow records monitoring the dissociation of 5 μM M200 filaments on jumping [NaCl] from 100 mM to 120 mM NaCl. Other components of the buffer were 20 mM Hepes, 1 mM Mg^2+, and 100 μM Ca^2+ at pH 7.5 and 20 °C. […] In the presence of 20 μM S100A4 (lower trace), the turbidity decreased by 87% with a rate constant of 0.2 s^− 1.
It is of interest to know whether S100A4 drives depolymerisation solely by binding to free M monomer and allowing the polymer equilibrium to readjust (i.e., via k− 4 and k5), or whether S100A4 also binds to the filament bundle and actively depolymerises an M200 unit (via k6 and k− 7). […] In an attempt to address this question, the dissociation rate of the M200 filament was followed on jumping the NaCl concentration from 100 mM to 120 mM in the absence and in the presence of S100A4 (Fig. 9c). Under these conditions in the absence of S100A4, turbidity dropped to about 50% of its initial value with a profile fitted to a double exponential (k1obs = 0.33 s^− 1 with 12% amplitude and k2obs = 0.037 s^− 1 with 43% amplitude, relative to the total amplitude expected for a full dissociation). Therefore, at the end point of this reaction, the filament concentration decreased by about 2-fold (turbidity is proportional to concentration over this range; Fig. S5b). There should also be a corresponding rise in M200 monomer concentration, but this may be less than accounted for by the loss of filaments if the drop in turbidity was also associated with a rise in small M200 oligomers with a lower specific turbidity. […]

[2] = tested on: M111; assay: NMR ^1H,^15N HSQC of labelled M111 on addition of full-length S100A4; type: binding, human; conditions: 1.5 molar excess of full-length S100A4
Procedure: Fig. 7 Chemical shift changes in the ^1H,^15N HSQC spectra of ^13C,^15N-labelled M111 on addition of full-length S100A4. Superposition of the spectra in free form (black) and in the presence of a 1.5 molar excess of S100A4 (red). Resonance assignments derived from the analysis of triple-resonance spectra are marked. In addition to sharp intense cross-peaks, the spectra contain broad low-intensity peaks that cannot be assigned due to low sensitivity.
All NMR samples were prepared in 20 mM 4-morpholineethanesulfonic acid, 20 mM NaCl, 5 mM CaCl2, and 5% D2O buffer (pH 6.1). DTT (2 mM) was added to the samples containing S100A4. Titration experiments were carried out at 0.2 mM S100A4 using 10 mM peptide solutions. Spectra for M111 backbone resonance assignments were measured using 0.4 mM protein solution. NMR spectra were obtained at 298 K using Bruker AVANCE DRX 600 or AVANCE DRX 800 spectrometers, which are both equipped with cryoprobes. Proton chemical shifts were referenced to external 2,2-dimethyl-2-silapentane-5-sulfonate. The ^15N and ^13C chemical shifts were referenced indirectly using recommended gyromagnetic ratios.[44] Spectra were processed with TopSpin (Bruker) and analysed using Analysis.[45] Three-dimensional HNCO, HN(CA)CO, HNCA, HN(CO)CA, HNCACB, and HN(CO)CACB experiments were used for the sequential assignment of the backbone NH, N, CO, C^α, and C^β resonances.

With “S100A4: recombinant S100A4 expressed in E. coli BL21(DE3)” the “decrease in turbidity on NaCl jump” value ([1]; 20 μM S100A4, 5 μM M200, 100 to 120 mM NaCl) was 87%, the “initial rate relative to absence of S100A4” value ([1]; 20 μM S100A4, NaCl jump) was “five times faster than in the absence of S100A4” and the “kobs, biphasic fit” value ([1]; 20 μM S100A4, NaCl jump) was 0.21 s^− 1. For the same substance, the “rate constant (single exponential)” value ([1]; 20 μM S100A4, NaCl jump) was 0.19 s^− 1 and the “resonance broadening in M111 on S100A4 addition” value [2] was “additional broadening of resonances in the 1926–1939 region”.
